Reference: patent US20150151000A1 (INDIANA UNIVERSITY RESEARCH AND TECHNOLOGY, published 2015)

B1: L1 (CaV1.2) peptide (peptide)
peptide: YLDWITQAEDIDPEN
notes: Immobilised 15-mer spot; also called L1 peptide of L (CaV1.2)-type channel
B2: L1 peptide (CaV2.2[388-402]) (peptide)
peptide: YLEWIFKAEEVMLAE
notes: 15-mer from the first intracellular loop of CaV2.2; It was immobilised as a spot in the SPOTS array and used as a synthetic peptide in MST; also called L1 (CaV2.2); [388-402]; L1
B3: L1 (CaV2.1) peptide (peptide)
peptide: YMEWISKAEEVILAE
notes: Immobilised 15-mer spot; also called L1 peptide of P/Q (CaV2.1)-type channel
B4: L1 (CaV2.3) peptide (peptide)
peptide: YRAWIDKAEEVMLAE
notes: Immobilised 15-mer spot; also called L1 peptide of R (CaV2.3)-type channel
B5: Ct-dis peptide (CaV1.2[2014-2028]) (peptide)
peptide: NSSFPSIHCSSWSEE
notes: also called Ct-Dis (CaV1.2 (L)); [2014-2028]; Ct-dis

These binders were tested against CRMP2 (endogenous, rat brain synaptosomes, rat brain lysates and rat dorsal root ganglia lysates) (rat, UniProt P47942 1-572) (assay: SPOTS peptide array overlaid with rat brain synaptosome fraction, anti-CRMP2 far-Western).
B1: binds.
B2: binds.
B3: binds.
B4: binds.
B5: binds.

The binders below were run against T1, CRMP2-His (recombinant collapsin response mediator protein 2, NT647-labeled) (assay: microscale thermophoresis, NT647-labeled CRMP2 constant, peptide titrated 0 to 5 µM, Hill fit).
T1 construct: Purified on Talon resin and labeled with NT647 for microscale thermophoresis; also called recombinant CRMP2; NT647-labeled CRMP2
B2 gave a Kd of 3120 nM.
In the case of B5, the Kd is reported as 640 nM.
